Results from publication PMC11389852, “Developing deprotectase biocatalysts for synthesis†” (Faraday Discussions, 2024).

Biological target: the molecule itself
Experiment: SEC; size exclusion chromatography of recombinant Cbz-ase (Fig. S32); conditions not told in the main text

B1: Sphingomonas paucimobilis Cbz-ase (amidohydrolase), recombinant (enzyme)
chain: MVQPTPTPQSELPGLIARDMEGLMTLYRDLHANPELSLQEVNTAAKLAKRLKAMKFDVTEKVGGTGVVAVMKNGSGPVLLIRADMDGLPVVEQTGLDFASKVRTKTPEGVETGVMHACGHDTHMTAFIETAKLLSSSKDKWKGTLVMILQPAEEVGKGARDMLEDGLYTRFPRPTHAIAFHDAANLQAGVVGYTPGYALANVDSVDIVVKGLGGHGAYPQTTRDPIVLGSRIVTSLQTLVSREQDPQDPAVVTVGSFQAGAKHNIIPDQALLLLTVRSYSDETRAKLIKGIERIARGEAIAAGVPDDKMPVVSVKDEFTPSTYNPPEFAEQMGALLKGHFAEGRVVKTPAVMGGEDFGRFYRADKSINSFIFWVGGVPADKMAAAQAGQITLPSLHSPFWAPEADKVIATASEAMTVLAMDILKKD
stoichiometry N: 4
